B1: TPR t1 (parent)
chain: GACCAAUCUGCCCUCAGAGCUCGAGAACAUCUUCGGAUGCAGAGGAGGCAGGCUUCGGUGGCGCGAUAGCGCCAACGUCCUCAACCUCCAAUGCAUCCCACCACAUGAUGAUGCCUGAAGAGCCUUGGUUUUUUG

Variants of: B1
Assay: polymerase ribozyme fitness, log enrichment relative to wild type (log ratio); higher = more active; in vitro selection for triplet polymerase activity
Method in brief: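 Mutant libraries of both subunits of a heterodimeric triplet polymerase ribozyme were PCR-built, transcribed, and selected once in triplicate, with frozen incubation at −7 °C and capture of gel-excised extended constructs on streptavidin beads before RT-PCR. Illumina sequencing of input and output libraries was filtered to genotypes with ≥10 input reads and ≥1 read per output. Fitness is the logarithm of genotype enrichment over wild-type enrichment, using inverse-variance-weighted replicate averages. The logarithm is base 2.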

Variant | polymerase ribozyme fitness (log ratio)
C8G A26G C86G U109C | -5.29
G52C G120C | -0.0985
C3U G117A G120U | -2.21
G39A U81A C88U | -0.679
A5C A37C G60C C79U C123A | -0.023
U9C G57U C114U G128C U130C | -1.68
U112A A118U G135A | 1.33
U78C U112A A118U | 1.17
A29U U38G C88U | -3.31
C53G U106G | -2.14
G63U U81C C86A U129C | -5.92
A18G G113C | -1.3
U9A C13A G42C A43U A100U | -3.76
A41U A91C U92C | -2.44
C11A A74G | -1.56
G117A U131A | -1.59
C12G C40G G63A | -1.01
C11U | -0.381
C8U U59G A75U U81G C124U | -2.31
G35U G69A A105C U106A G120U | -6.28
A24G G128A | -3.49
G45U U132A | -1.91
C4U G120C | -0.0314
C22U A26G G52C A105C C124U | -4.45

Variant | polymerase ribozyme fitness (log ratio)
A27C C86G U133A | -5.16
C11G A41C C56U G93A C123G G135U | -3.49
C11U C22U U38C | -4.76
U33A A66G C123A | -6.2
C72A C86U A108U | -5.12
C40A C53A G57U | -0.732
G36U G60C G69U A100U | -4.04
U14A C73A A74C G120A | -0.495
A6U A26C C34G C64G A111U | -7.61
C34U A84U U131G | -5.95
G44U C72U | -1.36
C13A C88G A105G G120U | -4.2
U7A G10U C64G G93A | -6.26
G10U C13G C80U G135U | -1.95
G60A U81G U109A C124A | -7.74
C3A G39U | -2.46
A24G G42U G60U C88G A121G | -1.74
C4U G61A C89A | -1.4
A6U C49A C53A C79A C85U A111C | -3.36
C62A U131A | -0.5
A6U A41G A91G | -2.5
C28U A41C C53G | -3.32
A43U G48A C56U | -1.58
C62A G120A | -0.339

Variant | polymerase ribozyme fitness (log ratio)
U7G G42A G63C U81A U109A U130C | -6.25
G71U U133A | -0.757
A50C U125A | -0.974
C82G A95C G110U | -3.96
A90U A100U | -2.77
G52A A68G | -3.34
A37C C40U C53U G63U C123G U133C | -0.381
C40G C72U | -1.47
C15U G69C | -2.64
A6U G52U C53G G128C | -3.38
A18U C114A | -2.02
G63U U134G | -1.64
A66U U78C C123U | -0.156
C20A C79A | -3.62
G36A C49U C64U C86G U92C | -6.86
G71U G127U | -1.02
C49U A50U A95G U96A A111G | -7.1
U14A C79G A83U | -5.11
C8A G35A G61A C89U A95U U106A | -6.13
A50C G57U G69A G120A G127A | -3.95
C13U A41U U126C | -2.14
U33A U87A | -4.12
A46U G61U | -0.648
C104A C114G | -3.81

Variant | polymerase ribozyme fitness (log ratio)
C8A G19U G44U C97U | -3.97
C13G C28G U96A | -4.5
C40U A74U A111C | -1.01
C12A C15G C101U | -3.16
G52A G93A U130G | -1.22
U38A C40A G93U | -0.915
C12G G45U C72A G127A | -2.17
A18U G39U G48U C73U A84C | -4.34
A43C U78C C80A C89U | -4.14
U9A G128C | -2.11
C11G A27U C49A A84U C114A G120A U125A | -5.59
A46G C56A C101G U126C | -2.14
C13A A41U G45C C82A | -4.65
C80G | -5.78
C80A | -2.86
C49A G52A G57A U78A | -1.73
C8G G17U U81A U87C U96C G113A | -4.04
G57U A84C C101G G122A | -3.55
C15A A84G C94U | -2.76
C72G C104U | -0.348
C4U C72A A100U | -1.48
A5G U33A C124U | -3.02
G51A G60U | -1.77
C70A C85U G110C C115U A121G | -7.89

Variant | polymerase ribozyme fitness (log ratio)
C15U A27C C56G C73U C97U | -6.81
C31U C49G G63U A75C | -6.11
G48C G71C C123G | -0.00854
A5C G17A | -4.76
A6U G48A A68G C123A | -2.21
G42U A43C G47C C62A U130C | -4.8
C12A G44A A46G G48U | -3.1
U38A G39A G61U | -1.2
C115G U125A | -1.66
C12A A37C | -1.93
A91G A100C | -2.5
G58C C62A C114A G127A U130G | -6.59
C115A G127C | -1.67
C73A G93C | -0.962
G47C C56U U106A C123A | -1.35
C11A A27G | -6.66
G42A G71U U130G | -4.16
C53U C72U C82G C123G | -0.45
C12G G113U | -3.38
A2C G57C G71A U92G G120A | -6.04
C28A C97U G110C | -1.97
C13G G71A | -2.22
C28G G61A | -2.51
C31U G69U C73U A100U | -3.8

Variant | polymerase ribozyme fitness (log ratio)
C64U U112G C124G G135A | 1.56
G52A G71U U87A U131G | -2.35
C13U G60A A100U C101U C104U A121C | 1.93
C62U G128C U133C | -2.74
G10U G39C A46C U116G | -3.17
G36C A37U G48C A91U C115U | -4.92
G52U C99U U132C | -4.08
A18G C80U U92C G120U U129C U130A | -6.4
A29G C72A | -1.27
G71C A84U | -2.77
C11G G61A C124A | 2.07
G17A G57C | -2.86
C13A C56G | -2.27
C8G C101G G128U | -3.26
C73A U81G C88A U112G C115A U125A | -5.14
C88A G120U | -0.146
C49U G63C C124U | 0.36
A6C G42U G63C C79U | -2.06
C53U U133A | -0.343
C4U A41C C56A G63A | -4.61
U131A U132C | 0.142
C13U U14G C80U C115A | -3.73
G44U G58C | -0.197
A46U G57A C79G | -2.59

Variant | polymerase ribozyme fitness (log ratio)
U55G G63U A108G | -2.44
U9C C20A A37G G47A U87G G120A G122U | -3.6
G36A C49A C56U | -0.697
A50G C73A U106G | -1.39
C49U C72U C94G | -1.72
A24G C124A | 0.386
A5C G51A U78C G113U U133G | -6.24
C15A C53A G77A C101G G120A C124A | -1.12
C8U U92C | -0.788
G10U C15G G19U G63A G113U C124A | -5.07
U92C G128C | -3.41
U21C U55C G63U A105U | -4.84
G17A G128C | -5.29
G48A U67C | -3.66
G45U G120U | -0.652
A26U C114U | -5.07
A27C C124G | -0.608
G71A G117C | -3.15
U81C C85U A118G G122U C124U U129A | -3.58
C8A G17A C72U U126A | -3.12
U32G C70G C98G | -6.14
G61U C72U U131A | -0.274
U7C C34A G44C A84U | -4.89
